In paper PMC12769810, “Structure and substrate promiscuity of Campylobacter jejuni periplasmic nitrate reductase (Nap) and phylogenetic analysis of Nap homologs” (The Journal of Biological Chemistry, 2025):

What was measured:
[O-][Cl+2]([O-])O = purified protein; assay type: biochemical, Campylobacter jejuni; details: reduced methyl viologen, 50 mM HEPES pH 7, room temperature, argon glove box, 67 nM enzyme
[O-][Cl+3]([O-])([O-])O = purified protein; assay type: biochemical, Campylobacter jejuni; details: reduced methyl viologen, 50 mM HEPES pH 7, room temperature, argon glove box, 67 nM enzyme, corrected for background oxidation
CjNapA (WT NapA) [1] = target: T1, CjNapA (WT NapA) (Campylobacter jejuni, UniProt Q9PPD9); assay: cryo-EM structure, […] Å; assay type: binding; details: coordinated by Cys42, Cys45, Cys49, Cys77
T1 construct: recombinant catalytic subunit NapA without NapB; native N-terminal TAT signal peptide replaced by that of E. coli; 889 residues modelled by cryo-EM

CjNapA (WT NapA) [2] = target: T1, CjNapA (WT NapA); assay: steady-state nitrate reductase assay, reduced methyl viologen oxidation, double-reciprocal plot; assay type: biochemical

T1 sequence (Q9PPD9 31-924): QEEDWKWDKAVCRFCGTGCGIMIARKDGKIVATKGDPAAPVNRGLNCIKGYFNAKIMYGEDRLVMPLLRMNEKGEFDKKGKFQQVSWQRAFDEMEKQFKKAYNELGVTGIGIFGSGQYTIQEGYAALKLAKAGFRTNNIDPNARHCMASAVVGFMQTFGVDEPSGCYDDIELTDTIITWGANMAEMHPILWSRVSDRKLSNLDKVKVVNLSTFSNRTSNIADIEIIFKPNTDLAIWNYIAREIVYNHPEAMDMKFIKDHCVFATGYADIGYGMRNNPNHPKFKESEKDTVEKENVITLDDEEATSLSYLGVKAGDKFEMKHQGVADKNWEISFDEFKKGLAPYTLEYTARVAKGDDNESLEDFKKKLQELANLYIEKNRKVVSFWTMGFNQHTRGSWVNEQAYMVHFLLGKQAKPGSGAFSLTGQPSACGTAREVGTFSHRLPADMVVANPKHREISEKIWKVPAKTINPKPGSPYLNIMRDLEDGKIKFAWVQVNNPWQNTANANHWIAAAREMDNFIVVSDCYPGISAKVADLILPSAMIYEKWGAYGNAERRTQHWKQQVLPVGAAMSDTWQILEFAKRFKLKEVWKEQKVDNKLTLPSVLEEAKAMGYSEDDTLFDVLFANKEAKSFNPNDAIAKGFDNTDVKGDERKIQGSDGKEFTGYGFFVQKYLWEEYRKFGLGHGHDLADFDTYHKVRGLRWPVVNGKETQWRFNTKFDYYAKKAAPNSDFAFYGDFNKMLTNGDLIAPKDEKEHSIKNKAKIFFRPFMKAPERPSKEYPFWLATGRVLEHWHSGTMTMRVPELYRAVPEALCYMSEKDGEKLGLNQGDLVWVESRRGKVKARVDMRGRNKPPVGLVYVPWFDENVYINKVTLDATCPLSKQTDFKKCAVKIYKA

What does the source list for “CjNapA (WT NapA) (Campylobacter jejuni subsp. jejuni NCTC 11168 = ATCC 700819)”?
Km ([O-][Cl+2]([O-])O): 0.968 ± 0.093 mM; kcat ([O-][Cl+2]([O-])O): 2.13 ± 0.04 s⁻¹; kcat/Km ([O-][Cl+2]([O-])O): 2200 M⁻¹ s⁻¹; Km ([O-][Cl+3]([O-])([O-])O): 22.907 ± 3.132 mM; kcat ([O-][Cl+3]([O-])([O-])O): 2.52 ± 0.07 s⁻¹; kcat/Km ([O-][Cl+3]([O-])([O-])O): 100 M⁻¹ s⁻¹

How did the “cryo-EM structure, 3.04 Å” value (CjNapA (WT NapA) [1]) turn out when `[S]12[Fe]3[S]4[Fe]1[S]1[Fe]2[S]3[Fe]41` [[4Fe4S] cluster] was run?
Its value is “NapA has a [4Fe4S] cluster, which is located closer to the surface of the protein”.

With `[O-][Cl+3]([O-])([O-])O` [perchlorate] as the molecule, how does the Ki (CjNapA (WT NapA) [2]) read?
Its Ki is 4.7 ± 0.3 mM.
